Test results: patent publication US20090011497 (published 2009)

Target: T1, hu-MPL (human, UniProt P40238)
T1 chain: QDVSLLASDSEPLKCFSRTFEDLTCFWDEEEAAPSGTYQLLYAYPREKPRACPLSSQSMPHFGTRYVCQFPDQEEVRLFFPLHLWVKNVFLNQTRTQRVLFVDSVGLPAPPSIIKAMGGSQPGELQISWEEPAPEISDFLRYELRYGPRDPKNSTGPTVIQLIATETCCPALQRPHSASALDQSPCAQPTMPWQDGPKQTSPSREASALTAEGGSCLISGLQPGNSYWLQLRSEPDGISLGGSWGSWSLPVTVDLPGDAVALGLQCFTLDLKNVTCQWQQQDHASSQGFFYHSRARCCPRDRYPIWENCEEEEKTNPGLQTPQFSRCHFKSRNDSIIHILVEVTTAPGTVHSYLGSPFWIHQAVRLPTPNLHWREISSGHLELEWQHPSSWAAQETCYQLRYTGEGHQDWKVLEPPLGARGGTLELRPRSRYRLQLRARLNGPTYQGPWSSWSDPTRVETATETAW
Experiment: SPR

Kd: 0.56 nM
Binder: YCDEGPTLKQWLVCLGLQ [TMP20]
